Measurements: FireProtDB (doi:10.1021/bi049405c)
“And” between values parts separate entries of the source, which are not always exact repeats. Equal entries are not always repeated.

Conditions: Escherichia coli (strain K12); pH 7.6; 25 °C; GdnHCl; CD; HEPES 10 mM; KCl 100 mM; transition: 3; reversible: yes; whole UniProt chain shown

B1: Nickel-responsive regulator wild type, P0A6Z6 (protein)
chain: MQRVTITLDDDLLETLDSLSQRRGYNNRSEAIRDILRSALAQEATQQHGTQGFAVLSYVYEHEKRDLASRIVSTQHHHHDLSVATLHVHINHDDCLEIAVLKGDMGDVQHFADDVIAQRGVRHGHLQCLPKED
denaturant midpoint (higher = more stable): 1.2 M and 2.8 M
